Results reported in article PMC7015241, “Myopalladin promotes muscle growth through modulation of the serum response factor pathway” (Journal of Cachexia, Sarcopenia and Muscle, 2019).

Biological target: Filamentous actin (F-actin) (rabbit, UniProt P68135 1-377)
Assay: co-sedimentation; 1–30 μM polymerized actin incubated with 10 μM MYPN Ig3, Ig4 or Ig3–4 domain for 1 h in 100 μL, 150 000×g for 30 min; SDS-PAGE of supernatants and pellets, densitometry; F-buffer (Tris, KCl, MgCl2, DTT, pH 8.0)
Conditions: both partners purified

Kd: 4.6 µM
B1: Myopalladin (MYPN) Ig3-4 tandem domain (domain or fragment)
chain: PIFDKRLKHFRVTEGSPVTFTCKIVGIPVPKVYWFKDGKQISKRNEHCKMRREGDGTCSLHIESTTSDDDGNYTIMAANPQGRISCSGHLMVQSLPIRSRLTSAGQSHRGRSRVQERDKEPLQERFFRPHFLQAPGDMVAHEGRLCRLDCKVSGLPPPELTWLLNGQPVLPDASHKMLVRETGVHSLLIDPLTQRDAGTYKCIATNKTGQNSFSLELS
